The results in this text go back to patent publication US20110035817A1 (YEDA RESEARCH AND DEVELOPMENT, published 2011).

In this experiment the target is T1, myc-NIK (wild-type NIK fused N-terminally to a six myc tag) (UniProt Q99558 1-947).
T1 construct: pCS3MTNIK expression vector, co-transfected into HEK-293T cells; also called NF-κB-inducing kinase; MAP3K14; not shown: six myc tag at the N-terminus
In words: co-immunoprecipitation from HEK-293T lysate: NIK immunoprecipitated with anti-NIK antibody, co-precipitated SIVA detected by Western blot. As for the experimental part: FLAG-SIVA2 or FLAG-SIVA3 expression vectors were co-transfected with NIK expression vector into HEK-293T cells. 24 h later, cells were lysed, NIK was immunoprecipitated with anti-NIK antibody and co-precipitated SIVA was monitored by western Blotting. WB=Western Blot, TLC=Total cell lysate, IP=immunoprecipitation.
Next, it was explored whether SIVA3 binds NIK. FLAG-SIVA2 (8 μg) or FLAG-SIVA3 (8 μg) were co-transfected with myc-NIK (7 μg) into HEK-293T cells (1.5×10⁶ seeded in 90 mm plate, transfected using calcium phosphate method). 24 h later, cells were lysed, NIK was immunoprecipitated with anti-NIK antibody and co-precipitated SIVA was detected by western Blotting.
In general terms: Immunoblotting shows a protein as a band on a membrane.

T1 sequence (Q99558 whole entry, the tested form may be a part): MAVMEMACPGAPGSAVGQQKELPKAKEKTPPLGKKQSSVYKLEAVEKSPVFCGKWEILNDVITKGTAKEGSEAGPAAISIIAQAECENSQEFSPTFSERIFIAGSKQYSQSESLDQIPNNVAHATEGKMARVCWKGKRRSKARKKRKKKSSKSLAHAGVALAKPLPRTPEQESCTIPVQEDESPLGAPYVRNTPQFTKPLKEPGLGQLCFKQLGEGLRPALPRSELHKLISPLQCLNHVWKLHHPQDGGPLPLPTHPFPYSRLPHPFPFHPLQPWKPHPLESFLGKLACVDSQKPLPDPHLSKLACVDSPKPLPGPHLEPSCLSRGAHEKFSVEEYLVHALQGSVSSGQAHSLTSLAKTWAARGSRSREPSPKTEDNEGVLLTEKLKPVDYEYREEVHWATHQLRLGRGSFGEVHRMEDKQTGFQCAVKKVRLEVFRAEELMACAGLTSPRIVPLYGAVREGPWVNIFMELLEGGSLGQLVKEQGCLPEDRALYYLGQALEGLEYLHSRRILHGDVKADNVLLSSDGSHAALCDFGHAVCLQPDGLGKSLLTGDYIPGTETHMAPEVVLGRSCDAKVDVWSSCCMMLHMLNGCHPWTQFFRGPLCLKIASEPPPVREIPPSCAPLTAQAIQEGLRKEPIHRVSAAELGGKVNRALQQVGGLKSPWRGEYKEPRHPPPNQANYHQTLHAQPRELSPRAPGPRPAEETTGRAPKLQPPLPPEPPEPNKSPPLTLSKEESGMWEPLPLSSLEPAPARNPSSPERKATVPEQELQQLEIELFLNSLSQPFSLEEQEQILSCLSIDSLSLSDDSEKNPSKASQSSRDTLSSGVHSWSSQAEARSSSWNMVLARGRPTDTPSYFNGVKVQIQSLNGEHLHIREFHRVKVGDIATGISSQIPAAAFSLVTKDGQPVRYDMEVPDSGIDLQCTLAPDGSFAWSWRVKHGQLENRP

B1: FLAG-SIVA3 (other)
chain: MPKRSCPFADVAPLQLKVRVSQRELSRGVCAERYSQEVFAAVTCTRKCCAPAVPCSRPEAGSSRLPSPGATPCMAAFPGRALGVHTELWGRREGCLLHVLFCILMTE
notes: Expressed from pcDNA3 in HEK-293T cells and tested in lysate by co-immunoprecipitation; not shown: FLAG tag
On to B1, for which the binding result is listed as “no binding”.
